Measured values reported in patent publication US20030235860A1, “Interactions between AR, ER, TR2, and TR4” (priority 1999, published 2003).
No end group written: not given here.

Biological target: T1, ER (Homo sapiens, UniProt P03372, G400V)
T1 construct: Full-length ER and TR2 in eukaryotic expression vectors (pSG5-ER and pCMV-TR2) were co-transfected; expressed in transfected cells; host or cells: PC-3 and H1299 (pSG5-ER transfected)
T1 sequence (P03372 1-595 G400V): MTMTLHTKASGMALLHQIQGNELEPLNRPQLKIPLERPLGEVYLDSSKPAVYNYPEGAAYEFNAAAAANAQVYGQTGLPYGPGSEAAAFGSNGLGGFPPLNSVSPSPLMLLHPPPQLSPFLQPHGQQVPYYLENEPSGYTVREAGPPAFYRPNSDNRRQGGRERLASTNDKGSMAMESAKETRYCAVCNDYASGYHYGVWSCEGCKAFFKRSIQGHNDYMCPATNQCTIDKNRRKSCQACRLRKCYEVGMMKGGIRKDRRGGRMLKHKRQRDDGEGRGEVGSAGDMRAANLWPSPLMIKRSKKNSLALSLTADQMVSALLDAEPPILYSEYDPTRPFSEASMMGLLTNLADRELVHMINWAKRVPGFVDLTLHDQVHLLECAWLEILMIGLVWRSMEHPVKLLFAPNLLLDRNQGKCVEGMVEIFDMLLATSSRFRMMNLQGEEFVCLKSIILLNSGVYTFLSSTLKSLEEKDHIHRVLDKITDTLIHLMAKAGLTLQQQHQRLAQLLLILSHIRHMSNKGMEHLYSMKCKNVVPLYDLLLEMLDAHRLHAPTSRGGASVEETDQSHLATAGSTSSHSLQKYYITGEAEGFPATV
Experiment: ER-mediated transactivation reporter assay (ERE-CAT / ERE-Luc)
Type: cell-based
Settings: for Activity ER (effect of regulator on transcription activity): Table 5
Protocol: Transfections and chloramphenicol acetyltransferase (CAT) assays were performed as described previously. Yeh, & Chang, Proc. Natl. Acad. Sci. 93, 5517-5521 (1996). Briefly, 4×10^5 cells were plated in 60-mm dishes and cultured for 24 h, and then the medium was changed to phenol red free DMEM with 5% charcoal-stripped FCS 2 h before transfection. The cells were co-transfected with TR2 and/or ER expression plasmids with 2 μg of TR2-TK-CAT reporter or 1 μg of ERE-CAT reporter gene plasmid, as indicated in the Figures, by using the calcium phosphate precipitation method. A β-gal actosidase expression plasmid, pCMV-β-gal, was transfected in all transfections as an internal control for normalizing transfection efficiency. The total amount of DNA was adjusted up to 10.5 μg with parent vectors, pSG5 or pCMV in each transcriptional activity assay. […] The cells were then harvested and whole cell extracts were used for CAT assay. The CAT activity was quantitated by Phosphorlmager (Molecular Dynamics). Data are presented as means±S.D. of at least three independent experiments.
Transfections and chloramphenicol acetyltransferase (CAT) assays were performed using the calcium phosphate precipitation method, as described previously (Yeh, S. et al. (2000) Proc. Natl. Acad. Sci. USA 97, 11256-61). CAT reporter plasmids containing one copy of estrogen response element (ERE-CAT), or mouse mammary tumor virus (MMTV-CAT) were used as indicated. Also, a β-galactosidase expression plasmid, pCMV-β-gal, was used for transfection efficiency.
H1299 and MCF-7 cells were maintained in Dulbecco's modified eagle medium (DMEM) containing penicillin (25 units/ml), streptomycin (25 μg/ml), and 10% fetal calf serum (FBS). Transfections were performed using the calcium phosphate precipitation method, as described previously (Lee, Y. et al. (1999) Proc. Natl. Acad Sci. USA. 96(26) 14724-9). Briefly, 3×10^5 cells were plated on 60-mm dishes for 24 h before transfection, and the medium was changed to DMEM with 10% charcoal/dextran-stripped FBS. H1299 cells were transfected with an ER expression plasmid (pSG5-ER or pCMV-mERβ, ERE-chloramphenicol acetyltransferase (ERE-CAT) or pSG5-PR and MMTV-Luciferase reporter plasmid, and a TR4 expression plasmid (pCMV-TR4) ERZ-CAT Bradshaw et al., (1991) J. Biol. Chem. 266:16684-16690 and pCMVB-gal and PSV-RL from promega, all of which are herein incorporated by reference at least for material related to plasmids and assays, including sequence.) MCF-7 cells were only transfected with ERE-CAT reporter and TR4 expression plasmid. For all transfection experiments, pCMVβ-gal (CAT assay) or pSV-40 RL (Luciferase assay) was used as an internal control for transfection efficiency and the total amount of transfected DNA was adjusted to 12 μg with pCMV. […] After another 24 h, the cells were harvested for CAT assay or Luciferase assay. The CAT activity was visualized by Phosphorlmager (Molecular Dynamics) and quantitated by IMAGEQUANT software (Molecular Dynamics). The luciferase activity was determined by the Luminometer (Turner Designs).

ER-#6: interaction blocker, ER fragment aa 312-340, as HA-tagged peptide, expression plasmid or cleaved peptide (ADQMVSALLDAEPPILYSEYDPTRPFSEA; also: HA tag (position not given here); UniProt P03372 312-340, looked up, fragment)
Effect on TR2-mediated suppression of ER transcription (ERE-CAT) (MCF7-TR2 cells, E2 and doxycycline): reversing this suppression
ER transcription (ERE-luciferase) (MCF7 cells, increasing amounts of plasmid): enhance ER transcription

B1: TR2: human testicular orphan nuclear receptor 2, 603 amino acids (protein, UniProt P13056 1-603, looked up)
chain: MATIEEIAHQIIEQQMGEIVTEQQTGQKIQIVTALDHNTQGKQFILTNHDGSTPSKVILARQDSTPGKVFLTTPDAAGVNQLFFTTPDLSAQHLQLLTDNSPDQGPNKVFDLCVVCGDKASGRHYGAVTCEGCKGFFKRSIRKNLVYSCRGSKDCIINKHHRNRCQYCRLQRCIAFGMKQDSVQCERKPIEVSREKSSNCAASTEKIYIRKDLRSPLTATPTFVTDSESTRSTGLLDSGMFMNIHPSGVKTESAVLMTSDKAESCQGDLSTLANVVTSLANLGKTKDLSQNSNEMSMIESLSNDDTSLCEFQEMQTNGDVSRAFDTLAKALNPGESTACQSSVAGMEGSVHLITGDSSINYTEKEGPLLSDSHVAFRLTMPSPMPEYLNVHYIGESASRLLFLSMHWALSIPSFQALGQENSISLVKAYWNELFTLGLAQCWQVMNVATILATFVNCLHNSLQQDKMSTERRKLLMEHIFKLQEFCNSMVKLCIDGYEYAYLKAIVLFSPDHPSLENMEQIEKFQEKAYVEFQDYITKTYPDDTYRLSRLLLRLPALRLMNATITEELFFKGLIGNIRIDSVIPHILKMEPADYNSQIIGHSI
modifications: full-length
notes: human testicular orphan nuclear receptor 2, 603 amino acids
E2-induced ER transcription (ERE-CAT) (MCF7-TR2 cells, doxycycline-induced TR2): significantly repressed
ERE-CAT activity, transfected ER (PC-3 and H1299 cells, 10 nM E2, increasing TR2 expression vector): suppression of ER transactivation in a dose-dependent manner
Endogenous ER-mediated ERE-CAT activity (T47D cells, increasing TR2 expression plasmid): repress
Activity ER (effect of regulator on transcription activity): Down
ER-mediated transcription (ERE-CAT or ERE-luciferase) (exogenous ER (PC-3, H1299) or endogenous ER (MCF7, T47D), Example 2): consistently suppressed

B2: TR4: human testicular orphan nuclear receptor 4, SEQ ID NO:16; expressed from plasmid or in vitro translated (protein)
chain: MTSPSPRIQIISTDSAVASPQRIQGSEPASGPLSVFTSLNKEKIVTDQQTGQKIQIVTAVDASGSPKQQFILTSPDGAGTGKVILASPETSSAKQLIFTTSDNLVPGRIQIVTDSASVERLLGKTDVQRPQVVEYCVVCGDKASGRHYGAVSCEGCKGFFKRSVRKNLTYSCRSSQDCIINKHHRNRCQFCRLKKCLEMGMKMESVQSERKPFDVQREKPSNCAASTEKIYIRKDLRSPLIATPTFVADKDGARQTGLLDPGMLVNIQQPLIREDGTVLLATDSKAETSQGALGTLANVVTSLANLSESLNNGDTSEIQPEDQSASEITRAFDTLAKALNTTDSSSSPSLADGIDTSGGGSIHVISRDQSTPIIEVEGPLLSDTHVTFKLTMPSPMPEYLNVHYICESASRLLFLSMHRARSIPAFQGLGQDCNTSLVRACWNELFTLGLAQCAQVMSLSTILAAIVNHLQNSIQEDKLSGDRIKQVMEHIWKLQEFCNSMANWDIDGYEYAYLKAIVLFSPDHPGLTSTSQIEKFQEKAQMELQDYVQKTYSEDTYRLARILVRLPALRLMSSNITEELFFTGLIGNVSIDSIIPYILKMETAEYNGQITGVSL
E2-induced ERE-CAT activity, ERα (H1299 cells, 10 nM E2, increasing TR4 expression plasmid): suppression of the E2-induced CAT activity in a dose-dependent manner
ER transactivation (ERE-CAT) (H1299 cells, ERα, 10 nM E2, full-length or C-terminal deletion TR4): repress ER transactivation in a dose-dependent manner
ERE-CAT activity (MCF-7-TR4 cells, 2 μg/ml Dox-induced TR4): repress
Endogenous ER-mediated CAT reporter activity (MCF-7 cells, increasing TR4): gradual decrease
Activity ER (effect of regulator on transcription activity): Down
